From patent publication US20020076719A1 (ROCKEFELLER UNIVERSITY, published 2002) come the findings set out here.

One experiment has as its target T1, untagged mTRF2 (mouse, UniProt O35144 46-541, limits assumed).
T1 construct: In vitro translated and 35S-methionine labelled; also called mouse TRF2
T1 sequence: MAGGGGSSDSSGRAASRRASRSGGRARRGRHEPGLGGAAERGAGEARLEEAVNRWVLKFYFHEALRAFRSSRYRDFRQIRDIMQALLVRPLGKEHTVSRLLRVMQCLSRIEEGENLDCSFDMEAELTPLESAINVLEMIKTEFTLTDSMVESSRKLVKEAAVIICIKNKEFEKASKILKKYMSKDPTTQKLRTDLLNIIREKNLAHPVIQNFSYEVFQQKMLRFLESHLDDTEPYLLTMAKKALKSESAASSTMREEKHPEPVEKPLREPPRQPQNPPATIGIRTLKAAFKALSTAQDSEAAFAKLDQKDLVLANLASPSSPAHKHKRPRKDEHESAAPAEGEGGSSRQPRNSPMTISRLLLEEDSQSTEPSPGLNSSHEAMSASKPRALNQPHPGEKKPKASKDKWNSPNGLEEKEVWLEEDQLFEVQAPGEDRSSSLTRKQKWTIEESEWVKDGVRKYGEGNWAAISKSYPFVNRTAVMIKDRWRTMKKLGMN
Briefly: co-immunoprecipitation of in vitro translated 35S-labelled proteins with M2 anti-FLAG antibody. The source says: (§1) FIG. 12: TRF2 interacts with TRF2 but not with TRF1. […] Values represent an average of three to nine independent transformants. FIG. 12B depicts in vitro translated ³⁵S-methionine labelled TRF1 and TRF2 proteins with or without an N-terminal FLAG tag (indicated above the lanes) were immunoprecipitated using the M2 anti-FLAG antibodies and analyzed by autoradiography.
Co-immunoprecipitation experiments. The human and mouse TRF1 constructs used were previously described [Chong et al., Science, 270:1663-1667 (1995); Broccoli et al., Hum. Mol. Genetics, 6:69-76 (1997); Bianchi et al., supra (1997)]. The FLAG-tagged mTRF2 and untagged mTRF2 were translated from cDNAs described above. ³⁵S-methionine labelled proteins [Chong et al., Science, 270:1663-1667 (1995); Broccoli et al., Hum. Mol. Genetics, 6:69-76 (1997); Bianchi et al., supra, (1997)] were immunoprecipitated using the M2 anti-FLAG antibody in buffer D (20 mM Hepes-KOH pH 7.9, 100 mM KCl, 20% glycerol, 0.2 mM EDTA, 0.2 mM EGTA, 0.1 % NP40, 0.1 % Triton-X-100, 0.5 mM DTT, 0.5 mM PMSF) followed by four washes in buffer D with detergents and two washes in buffer D without detergent. Pellets were suspended in SDS/PAGE loading buffer and resolved on a 9% SDS-polyacrylamide gel.

In experiment [1] the target is T2, hTRF2 dimerization domain (amino acid 45 to amino acid 246), LexA and GAD fusion proteins (human, UniProt Q15554 87-288).
T2 construct: Built both as a LexA and as a GAD fusion; also called dimerization domain of hTRF2; not shown: two-hybrid fusion partner, LexA or GAD depending on the construct (vectors pBTM116 and pACT2)
T2 sequence: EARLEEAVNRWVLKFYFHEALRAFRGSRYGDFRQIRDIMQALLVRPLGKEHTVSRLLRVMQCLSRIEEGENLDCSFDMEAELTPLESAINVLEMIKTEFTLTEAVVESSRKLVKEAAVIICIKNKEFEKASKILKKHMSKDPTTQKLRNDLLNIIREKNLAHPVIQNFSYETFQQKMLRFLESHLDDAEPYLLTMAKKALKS
Briefly: yeast 2-hybrid, b-galactosidase activity.
Text: as §1
Next the yeast 2-hybrid assay was used to determine whether the dimerization domains of TRF1 and TRF2 can interact. In a large number of trials, no convincing interactions between these proteins in two settings were detected (FIG. 12A). No activation occurred when the dimerization domain of TRF2 was probed for interactions with full length TRF1. In addition, no significant interactions were observed between fusion proteins containing the isolated TRF1 and TRF2 dimerization domains. The weak b-galactosidase activity detected with these proteins is probably due to the inherent slight transactivation activity of the TRF1 dimerization domain (FIG. 12A) which has been noted previously [Bianchi et al., supra, (1997)].

A further experiment deals with T3, FLAG-tagged mTRF2ΔN-49 (mouse, UniProt O35144 94-541).
T3 construct: also called mTRF2 DN-49; deletion mutant mTRF2ΔN-49
T3 sequence: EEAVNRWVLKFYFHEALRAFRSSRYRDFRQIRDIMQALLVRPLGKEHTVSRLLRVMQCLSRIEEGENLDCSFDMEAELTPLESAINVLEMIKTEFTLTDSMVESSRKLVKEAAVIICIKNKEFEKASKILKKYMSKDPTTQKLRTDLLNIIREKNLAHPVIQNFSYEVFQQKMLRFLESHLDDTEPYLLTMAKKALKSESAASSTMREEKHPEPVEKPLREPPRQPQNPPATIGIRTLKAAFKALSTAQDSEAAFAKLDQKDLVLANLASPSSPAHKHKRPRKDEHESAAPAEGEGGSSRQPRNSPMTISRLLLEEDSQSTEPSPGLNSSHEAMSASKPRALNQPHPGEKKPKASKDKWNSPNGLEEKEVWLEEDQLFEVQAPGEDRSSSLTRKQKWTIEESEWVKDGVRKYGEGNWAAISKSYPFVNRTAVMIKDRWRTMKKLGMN
Briefly: gel-shift assay on extracts of transfected HeLa cells; level of the hTRF1 homodimer complex unaltered. The source says:
This new activity was present in excess over the endogenous hTRF1 activity and could be super-shifted with the FLAG antibody (FIG. 10B, lane 4). The mTRF2ΔN-49 mutant protein was also found to localize to telomeric loci in transfected cells (see below). […] Acids Res., 24:1294-303 (1996)].
Absence of heterodimer formation was further corroborated by co-immunoprecipitation of in vitro translation products (FIG. 12B). […] The lack of heterodimerization is also consistent with the gel-shift assays on extracts from cells over-expressing mTRF2ΔN-49 (FIG. 10B). […] In similar experiments executed with FLAG-tagged hTRF 1, heterodimerization between the endogenous TRF1 and the transfected protein is consistently detected.

B1: FLAG-mTRF1 (mouse TRF) (other, UniProt P70371 2-421, looked up)
chain: AETVSSAARDAPSREGWTDSDSPEQEEVGDDAELLQCQLQLGTPREMENAELVAEVEAVAAGWMLDFLCLSLCRAFRDGRSEDFRRTRDSAEAIIHGLHRLTAYQLKTVYICQFLTRVASGKALDAQFEVDERITPLESALMIWNSIEKEHDKLHDEIKNLIKIQAVAVCMEIGSFKEAEEVFERIFGDPEFYTPLERKLLKIISQKDVFHSLFQHFSYSCMMEKIQSYVGDVLSEKSSTFLMKAATKVVENEKARTQASKDRPDATNTGMDTEVGLNKEKSVNGQQSTETEPLVDTVSSIRSHKNALSQLKHRRAPSDFSRNEARTGTLQCETTMERNRRTSGRNRLCVSENQPDTDDKSGRRKRQTWLWEEDRILKCGVKKYGEGNWAKILSHYKFNNRTSVMLKDRWRTMKRLKLIS
notes: The co-IP construct is 'previously described'; also called FLAG tagged mouse TRF; not shown: FLAG tag
B1: the binding result with untagged mTRF2 is given as “no binding”.

B2: hTRF1 dimerization domain, LexA and GAD fusion proteins (other)
chain: LVAEAEAVAAGWMLDFLCLSLCRAFRDGRSEDFRRTRNSAEAIIHGLSSLTACQLRTIYICQFLTRIAAGKTLDAQFENDERITPLESALMIWGSIEKEHDKLHEEIQNLIKIQAIAVCMENGNFKEAEEVFERIFGDPNSHMPFKSKLLMIISQKDTFHSFFQHFSYNHMMEKIKSYVNYVLSEKSSTFLMKAAAKV
notes: also called isolated TRF1 dimerization domain; homodimerization domain of TRF1; not shown: two-hybrid fusion partner, LexA or GAD
Regarding B2, in experiment [1], the binding result is on record as “no binding”.

B3: hTRF1 (endogenous, HeLa cells) (other)
chain: AEDVSSAAPSPRRCADGRDADPTEEQMAETERNDEEQFECQELLECQVQVGAPEEEEEEEEDAGLVAEAEAVAAGWMLDFLCLSLCRAFRDGRSEDFRRTRNSAEAIIHGLSSLTACQLRTIYICQFLTRIAAGKTLDAQFENDERITPLESALMIWGSIEKEHDKLHEEIQNLIKIQAIAVCMENGNFKEAEEVFERIFGDPNSHMPFKSKLLMIISQKDTFHSFFQHFSYNHMMEKIKSYVNYVLSEKSSTFLMKAAAKVVESKRTRTITSQDKPSGNDVEMETEANLDTRKSVSDKQSAVTESSEGTVSLLRSHKNLFLSKLQHGTQQQDLNKKERRVGTPQSTKKKKESRRATESRIPVSKSQPVTPEKHRARKRQAWLWEEDKNLRSGVRKYGEGNWSKILLHYKFNNRTSVMLKDRWRTMKKLKLISSDSED
notes: also called endogenous TRF1; human TRF1
Take B3: the binding result with FLAG-tagged mTRF2ΔN-49 is given as “no binding”.
